Measurements taken from patent US20230090901A1 (GAMMADELTA THERAPEUTICS, published 2023).

Legend:
[1] = target: L3 (DV1-GV8), soluble leucine zipper γδ TCR heterodimer of a delta variable 1 chain and a gamma variable 8 … (human); test: DELFIA ELISA, coated antigen;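 also: binding of antibody supernatants or protein-A purified antibodies to plate-coated antigen (3 µg/ml recombinant TCR or BSA), 1 h incubation at room temperature, DELFIA readout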
Protocol: (§1) A DELFIA ELISA binding method was also employed to assess binding of antibody supernatants or further protein-A purified antibody. In brief, MaxiSorp plates were coated with 3 μg/ml of antigen BSA or L1 (DV1-GV4), L2 (DV1-GV2), L3 (DV1-GV8), or L4 (DV2-GV4) recombinant TCR antigen. Plates were then washed with PBS, blocked with PBS/skimmed milk and then test article added and incubated for 1 hour at room temperature.

BSA = target: T1, BSA (bovine, UniProt P02769); test: DELFIA ELISA, coated antigen;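 also: binding of antibody supernatants or protein-A purified antibodies to plate-coated antigen (3 µg/ml recombinant TCR or BSA), 1 h incubation at room temperature, DELFIA readout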
T1 construct: coated at 3 µg/ml; also called bovine serum albumin, control antigen of the DELFIA ELISA
T1 sequence (P02769 25-607 limits assumed): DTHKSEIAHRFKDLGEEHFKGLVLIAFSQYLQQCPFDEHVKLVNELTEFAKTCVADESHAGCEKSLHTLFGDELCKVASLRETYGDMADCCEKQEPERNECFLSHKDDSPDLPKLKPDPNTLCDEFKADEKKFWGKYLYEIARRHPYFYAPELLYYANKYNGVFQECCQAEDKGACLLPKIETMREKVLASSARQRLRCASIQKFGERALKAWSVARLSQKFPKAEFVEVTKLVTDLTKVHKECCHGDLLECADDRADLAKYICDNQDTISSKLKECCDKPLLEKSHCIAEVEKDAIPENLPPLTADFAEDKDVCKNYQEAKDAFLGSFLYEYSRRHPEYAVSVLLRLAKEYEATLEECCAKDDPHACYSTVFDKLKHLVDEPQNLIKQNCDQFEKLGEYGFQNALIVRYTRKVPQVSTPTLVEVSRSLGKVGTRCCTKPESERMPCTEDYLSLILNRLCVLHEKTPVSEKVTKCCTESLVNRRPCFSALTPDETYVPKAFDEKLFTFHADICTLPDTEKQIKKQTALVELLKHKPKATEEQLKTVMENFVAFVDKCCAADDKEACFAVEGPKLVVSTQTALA
Protocol: as §1

[2] = target: L2 (DV1-GV2), soluble leucine zipper γδ TCR heterodimer of a delta variable 1 chain and a gamma variable 2 … (human); test: DELFIA ELISA, coated antigen;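 also: binding of antibody supernatants or protein-A purified antibodies to plate-coated antigen (3 µg/ml recombinant TCR or BSA), 1 h incubation at room temperature, DELFIA readout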
Chain of L2 (DV1-GV2), soluble leucine zipper γδ TCR heterodimer of a delta variable 1 chain and a gamma variable 2 … (human) (chain, as listed by the source mutant, chain 1 of 2): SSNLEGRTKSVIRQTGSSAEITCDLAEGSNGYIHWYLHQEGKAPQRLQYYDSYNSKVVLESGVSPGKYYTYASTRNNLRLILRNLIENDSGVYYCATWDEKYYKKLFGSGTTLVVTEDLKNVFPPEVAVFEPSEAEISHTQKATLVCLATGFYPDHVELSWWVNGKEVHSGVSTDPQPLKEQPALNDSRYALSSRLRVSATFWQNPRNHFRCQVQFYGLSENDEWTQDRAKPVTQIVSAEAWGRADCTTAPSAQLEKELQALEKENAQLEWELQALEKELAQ
Chain of L2 (DV1-GV2), soluble leucine zipper γδ TCR heterodimer of a delta variable 1 chain and a gamma variable 2 … (human) (chain, as listed by the source mutant, chain 2 of 2): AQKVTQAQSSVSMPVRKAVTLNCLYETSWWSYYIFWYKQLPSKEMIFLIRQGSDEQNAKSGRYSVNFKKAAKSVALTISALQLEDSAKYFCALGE
Protocol: as §1

[3] = target: T2, L1 (DV1-GV4), soluble leucine zipper γδ TCR heterodimer of a delta variable 1 chain and a gamma variable 4 … (human); test: DELFIA ELISA, coated antigen;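 also: binding of antibody supernatants or protein-A purified antibodies to plate-coated antigen (3 µg/ml recombinant TCR or BSA), 1 h incubation at room temperature, DELFIA readout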
T2 construct: also called bt-L1; not shown: histidine tag/linker said to follow the zipper
T2 sequence (main, as listed by the source, chain 1 of 2): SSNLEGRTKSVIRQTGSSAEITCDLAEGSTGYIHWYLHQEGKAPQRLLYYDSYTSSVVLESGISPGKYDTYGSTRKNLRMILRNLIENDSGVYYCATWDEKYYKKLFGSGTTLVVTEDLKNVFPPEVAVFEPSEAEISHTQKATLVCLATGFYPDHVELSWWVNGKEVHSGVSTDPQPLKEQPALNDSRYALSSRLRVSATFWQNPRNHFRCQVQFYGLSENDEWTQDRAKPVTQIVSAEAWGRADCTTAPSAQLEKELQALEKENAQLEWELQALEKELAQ
T2 sequence (main, as listed by the source, chain 2 of 2): as the sequence (chain, as listed by the source mutant, chain 2 of 2) above

[4] = target: T2, L1 (DV1-GV4), soluble leucine zipper γδ …; test: SPR (Reichert 4SPR), L1 coupled to chip, IgG1 flowed, steady state 1:1 fit; experiment 1
Protocol: (§2) In brief, the binding affinity of the antibodies to target (i.e. the human Vγ4 chain of a γδ TCR) was established by SPR analysis using a Reichert 4SPR instrument (Reichert Technologies). […] All experiments were performed at room temperature, with the samples kept at 4° C. before flowing over the chip. Steady state fitting was determined according to Langmuir 1:1 binding using software TraceDrawer (Reichert Technologies).

[5] = target: T2, L1 (DV1-GV4), soluble leucine zipper γδ …; test: SPR (Reichert 4SPR), L1 coupled to chip, IgG1 flowed, steady state 1:1 fit; experiment 2
Protocol: as §2

[6] = target: T2, L1 (DV1-GV4), soluble leucine zipper γδ …; test: SPR (Reichert 4SPR), L1 coupled to chip, IgG1 flowed, steady state 1:1 fit; average
Protocol: as §2

[7] = target: T3, Vγ4 chain-bearing γδ TCR on primary human Vγ4+ T cells (skin, PBMC, gut) (human); test: flow cytometry titration on skin-derived Vγ4+ T cells, left plot, anti-human IgG1 secondary
T3 construct: Polyclonal natural receptors; only the germline Vγ4 region is common to them; also called primary Vγ4+ T cells; primary skin-derived Vγ4+ T cells
T3 sequence (main, as listed by the source): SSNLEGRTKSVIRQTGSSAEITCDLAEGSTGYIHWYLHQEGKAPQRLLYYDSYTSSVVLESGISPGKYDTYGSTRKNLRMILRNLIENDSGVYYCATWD
Protocol: Detection was performed by addition of a secondary, fluorescent dye-conjugated antibody against human IgG1 (IS11-12E4.23.20). Cells were then fixed and acquired on the MACSQuant16 flow cytometer. Cells were gated as single, live, IgG1 (Vγ4)⁺. Data shown are the median fluorescent intensity (MFI) of secondary detection antibody detected bound to Vγ4⁺ cells.

[8] = target: T2, L1 (DV1-GV4), soluble leucine zipper γδ …; test: SPR (Reichert 4SPR), L1 coupled to chip, IgG1 flowed, steady state 1:1 fit; average column (one experiment)
Protocol: as §2

Chain of L3 (DV1-GV8), soluble leucine zipper γδ TCR heterodimer of a delta variable 1 chain and a gamma variable 8 … (human) (chain, as listed by the source mutant, chain 1 of 2): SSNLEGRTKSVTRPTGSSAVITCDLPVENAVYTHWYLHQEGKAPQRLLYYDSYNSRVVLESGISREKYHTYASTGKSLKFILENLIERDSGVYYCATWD
Chain of L3 (DV1-GV8), soluble leucine zipper γδ TCR heterodimer of a delta variable 1 chain and a gamma variable 8 … (human) (chain, as listed by the source mutant, chain 2 of 2): as the sequence (chain, as listed by the source mutant, chain 2 of 2) above

Binder	DELFIA ELISA response (FU) [1] [FU]	DELFIA ELISA response (FU) (BSA)	binding result (BSA)	DELFIA ELISA response (FU) [2] [FU]	DELFIA ELISA response (FU) [3] [FU]	Kd [4] [nM]	Kd [5] [nM]	Kd [6] [nM]	EC50 (read off the curve) [7] [µg/mL]	Kd [8] [nM]
G4_20 (antibody, human IgG1, V domains shown, also called 1254_P02_G02; clone G4_20) VH: QVQLVESGAEVKKPGASVKVSCKASGGTFSSYAISWVRQAPGQGLEWMGGIIPIFGTANYAQKFQGRVTITVDKSTRTAYMELSSLRSKDTAVYYCARGNSRSDAFDIWGQGTMVTVSS VL: SSYELTHPPSVSVSPGQTASITCSGDKLGDKFVSWYHQKPGQSPVLVIYQDSKRPSGIPERFSGSNSGNTATLTISGTRAMDEADYYCQAWDSSTVVFGGGTKLTVLG	239	132	no binding	147	184000	43	62.1	52.5	~2	
G4_18 (antibody, human IgG1, V domains shown, also called 1254_P01_H04; clone G4_18) VH: EVQLVESGAEVKKPGASVKVSCKASGYTFTGYYMHWVRQAPGQGLEWMGRINPNSGGTNYAQKFQGRVTMTRDASISTAYMELSRLRSDDTAVYYCARDLDLSSLDYWGRGTLVTVSS VL: SSYELTQPPSVTESPGQTARITCSGDALAKQYAYWYQQKPGQAPVLVIYRDSERPSEIPERFSGSSSGTTVTLTISGVQAEDEADYYCQSADSSGTYTVFGGGTKLTVLG	185	67	no binding	66	197000		19.9			19.9

The next lines start with the values.

DELFIA ELISA response (FU) [1] [FU]	DELFIA ELISA response (FU) (BSA)	binding result (BSA)	DELFIA ELISA response (FU) [2] [FU]	DELFIA ELISA response (FU) [3] [FU]	Kd [4] [nM]	Kd [5] [nM]	Kd [6] [nM]	EC50 (read off the curve) [7] [µg/mL]	Kd [8] [nM]	Binder
1690	40	no binding	579	138000	261				261	G4_27 (antibody, human IgG1, V domains shown, also called 1248_P02_C10; clone G4_27) VH: QVQLVQSGAEVKKPGESLKISCKSSGYSFTSYWIGWVRQMPGKGLEWMGIIYPGDSDTRYSPSFQGQVTFSADESISTAYLQWSSLKASDTAMYYCARHGAYGDYPDTFDIWGQGTLVTVSS VL: SSYELTQDPAVSVALGQTVSITCQGDSLRNFYANWYQQKPGQAPVLVIYGKNNRPSGIPDRFSGSSSGNTASLTITGAQAEDEADYYCNSRDSSGNHLVFGGGTQLTVLG
252	80	no binding	229	237000	17.8	20.2	19	~1		G4_12 (antibody, human IgG1, V domains shown, also called 1140_P01_G08; clone G4_12) VH: EVQLLESGGGLVQPGGSLRLSCAASGFTVSSNYMSWVRQAPGKGLEWVSVIYSGGSTYYADSVKGRFTISRHNSKNTLYLQMNSLRAEDTAVYYCARVANGDFLDYWGRGTLVTVSS VL: SQSVLTQPASVSGSPGQSITISCTGTSSDVGGYNFVSWYQQHPGKAPKLMIYEVTNRPSGVPDRFSGSKSGNTASLTISGLQAEDEADYYCSSHASPRVFGTGTKVTVLG
